# Source: the Human Domainome abundance scans (Beltran et al. 2025)
# ± gives the uncertainty stated by the source.
# Experiment: abundance fitness (aPCA) (normalised: wild type 0, dead -1); higher = more abundant; growth selection in yeast, the domain comes from the species named
# Conditions: Homo sapiens
row,Substance,abundance fitness
1,"NEDD4-like E3 ubiquitin-protein ligase WWP2 L446M, O00308",-0.05 ± 0.03
2,"NEDD4-like E3 ubiquitin-protein ligase WWP2 L446P, O00308",-0.394 ± 0.083
3,"NEDD4-like E3 ubiquitin-protein ligase WWP2 L446Q, O00308",-0.491 ± 0.058
4,"NEDD4-like E3 ubiquitin-protein ligase WWP2 L446R, O00308",-0.901 ± 0.054
5,"NEDD4-like E3 ubiquitin-protein ligase WWP2 L446S, O00308",-0.601 ± 0.054
6,"NEDD4-like E3 ubiquitin-protein ligase WWP2 L446T, O00308",-0.384 ± 0.071
7,"NEDD4-like E3 ubiquitin-protein ligase WWP2 L446V, O00308",-0.29 ± 0.052
8,"NEDD4-like E3 ubiquitin-protein ligase WWP2 L446W, O00308",-0.435 ± 0.065
9,"NEDD4-like E3 ubiquitin-protein ligase WWP2 L446Y, O00308",-0.072 ± 0.07
10,"NEDD4-like E3 ubiquitin-protein ligase WWP2 M440A, O00308",-0.137 ± 0.1
11,"NEDD4-like E3 ubiquitin-protein ligase WWP2 M440C, O00308",-0.491 ± 0.32
12,"NEDD4-like E3 ubiquitin-protein ligase WWP2 M440D, O00308",-0.138 ± 0.29
13,"NEDD4-like E3 ubiquitin-protein ligase WWP2 M440E, O00308",-0.085 ± 0.11
14,"NEDD4-like E3 ubiquitin-protein ligase WWP2 M440G, O00308",-0.284 ± 0.11
15,"NEDD4-like E3 ubiquitin-protein ligase WWP2 M440I, O00308",-0.021 ± 0.076
16,"NEDD4-like E3 ubiquitin-protein ligase WWP2 M440K, O00308",0.4 ± 0.12
17,"NEDD4-like E3 ubiquitin-protein ligase WWP2 M440L, O00308",-0.065 ± 0.1
18,"NEDD4-like E3 ubiquitin-protein ligase WWP2 M440N, O00308",0.283 ± 0.12
19,"NEDD4-like E3 ubiquitin-protein ligase WWP2 M440Q, O00308",0.206 ± 0.11
20,"NEDD4-like E3 ubiquitin-protein ligase WWP2 M440R, O00308",-0.103 ± 0.087
21,"NEDD4-like E3 ubiquitin-protein ligase WWP2 M440S, O00308",-0.102 ± 0.086
22,"NEDD4-like E3 ubiquitin-protein ligase WWP2 M440T, O00308",-0.117 ± 0.033

row,Substance,abundance fitness
1,"NEDD4-like E3 ubiquitin-protein ligase WWP2 M440V, O00308",-0.114 ± 0.079
2,"NEDD4-like E3 ubiquitin-protein ligase WWP2 M440W, O00308",-0.831 ± 0.3
3,"NEDD4-like E3 ubiquitin-protein ligase WWP2 M452A, O00308",-0.01 ± 0.048
4,"NEDD4-like E3 ubiquitin-protein ligase WWP2 M452C, O00308",0.009 ± 0.055
5,"NEDD4-like E3 ubiquitin-protein ligase WWP2 M452D, O00308",-0.12 ± 0.056
6,"NEDD4-like E3 ubiquitin-protein ligase WWP2 M452E, O00308",0.046 ± 0.046
7,"NEDD4-like E3 ubiquitin-protein ligase WWP2 M452F, O00308",-0.097 ± 0.05
8,"NEDD4-like E3 ubiquitin-protein ligase WWP2 M452G, O00308",-0.197 ± 0.051
9,"NEDD4-like E3 ubiquitin-protein ligase WWP2 M452H, O00308",-0.258 ± 0.066
10,"NEDD4-like E3 ubiquitin-protein ligase WWP2 M452I, O00308",-0.001 ± 0.053
11,"NEDD4-like E3 ubiquitin-protein ligase WWP2 M452K, O00308",-0.36 ± 0.11
12,"NEDD4-like E3 ubiquitin-protein ligase WWP2 M452L, O00308",-0.108 ± 0.042
13,"NEDD4-like E3 ubiquitin-protein ligase WWP2 M452P, O00308",-0.337 ± 0.054
14,"NEDD4-like E3 ubiquitin-protein ligase WWP2 M452Q, O00308",-0.107 ± 0.063
15,"NEDD4-like E3 ubiquitin-protein ligase WWP2 M452R, O00308",-0.103 ± 0.035
16,"NEDD4-like E3 ubiquitin-protein ligase WWP2 M452S, O00308",-0.069 ± 0.04
17,"NEDD4-like E3 ubiquitin-protein ligase WWP2 M452T, O00308",-0.017 ± 0.033
18,"NEDD4-like E3 ubiquitin-protein ligase WWP2 M452V, O00308",0.034 ± 0.038
19,"NEDD4-like E3 ubiquitin-protein ligase WWP2 M452W, O00308",-0.194 ± 0.057
20,"NEDD4-like E3 ubiquitin-protein ligase WWP2 M452Y, O00308",-0.159 ± 0.049
21,"NEDD4-like E3 ubiquitin-protein ligase WWP2 N466A, O00308",-0.242 ± 0.034
22,"NEDD4-like E3 ubiquitin-protein ligase WWP2 N466C, O00308",-0.169 ± 0.048

row,Substance,abundance fitness
1,"NEDD4-like E3 ubiquitin-protein ligase WWP2 N466D, O00308",-0.377 ± 0.064
2,"NEDD4-like E3 ubiquitin-protein ligase WWP2 N466E, O00308",-0.238 ± 0.069
3,"NEDD4-like E3 ubiquitin-protein ligase WWP2 N466F, O00308",-0.145 ± 0.071
4,"NEDD4-like E3 ubiquitin-protein ligase WWP2 N466G, O00308",-0.184 ± 0.051
5,"NEDD4-like E3 ubiquitin-protein ligase WWP2 N466H, O00308",-0.169 ± 0.075
6,"NEDD4-like E3 ubiquitin-protein ligase WWP2 N466I, O00308",-0.261 ± 0.079
7,"NEDD4-like E3 ubiquitin-protein ligase WWP2 N466K, O00308",-0.202 ± 0.07
8,"NEDD4-like E3 ubiquitin-protein ligase WWP2 N466M, O00308",-0.188 ± 0.07
9,"NEDD4-like E3 ubiquitin-protein ligase WWP2 N466P, O00308",-0.636 ± 0.075
10,"NEDD4-like E3 ubiquitin-protein ligase WWP2 N466Q, O00308",-0.06 ± 0.068
11,"NEDD4-like E3 ubiquitin-protein ligase WWP2 N466R, O00308",-0.164 ± 0.043
12,"NEDD4-like E3 ubiquitin-protein ligase WWP2 N466S, O00308",-0.175 ± 0.049
13,"NEDD4-like E3 ubiquitin-protein ligase WWP2 N466T, O00308",-0.255 ± 0.063
14,"NEDD4-like E3 ubiquitin-protein ligase WWP2 N466V, O00308",-0.212 ± 0.048
15,"NEDD4-like E3 ubiquitin-protein ligase WWP2 N466W, O00308",-0.513 ± 0.047
16,"NEDD4-like E3 ubiquitin-protein ligase WWP2 N466Y, O00308",-0.366 ± 0.085
17,"NEDD4-like E3 ubiquitin-protein ligase WWP2 P444A, O00308",-0.089 ± 0.059
18,"NEDD4-like E3 ubiquitin-protein ligase WWP2 P444D, O00308",0.148 ± 0.061
19,"NEDD4-like E3 ubiquitin-protein ligase WWP2 P444F, O00308",0.098 ± 0.067
20,"NEDD4-like E3 ubiquitin-protein ligase WWP2 P444G, O00308",0.089 ± 0.049
21,"NEDD4-like E3 ubiquitin-protein ligase WWP2 P444H, O00308",0.015 ± 0.037
22,"NEDD4-like E3 ubiquitin-protein ligase WWP2 P444I, O00308",-0.2 ± 0.049

row,Substance,abundance fitness
1,"NEDD4-like E3 ubiquitin-protein ligase WWP2 P444K, O00308",0.098 ± 0.071
2,"NEDD4-like E3 ubiquitin-protein ligase WWP2 P444L, O00308",0.036 ± 0.053
3,"NEDD4-like E3 ubiquitin-protein ligase WWP2 P444M, O00308",0.09 ± 0.062
4,"NEDD4-like E3 ubiquitin-protein ligase WWP2 P444N, O00308",0.105 ± 0.038
5,"NEDD4-like E3 ubiquitin-protein ligase WWP2 P444Q, O00308",0.065 ± 0.068
6,"NEDD4-like E3 ubiquitin-protein ligase WWP2 P444R, O00308",0.083 ± 0.041
7,"NEDD4-like E3 ubiquitin-protein ligase WWP2 P444T, O00308",0.045 ± 0.063
8,"NEDD4-like E3 ubiquitin-protein ligase WWP2 P444V, O00308",0.065 ± 0.058
9,"NEDD4-like E3 ubiquitin-protein ligase WWP2 P444W, O00308",-0.059 ± 0.05
10,"NEDD4-like E3 ubiquitin-protein ligase WWP2 P447A, O00308",-0.234 ± 0.043
11,"NEDD4-like E3 ubiquitin-protein ligase WWP2 P447C, O00308",-0.458 ± 0.07
12,"NEDD4-like E3 ubiquitin-protein ligase WWP2 P447D, O00308",-0.304 ± 0.083
13,"NEDD4-like E3 ubiquitin-protein ligase WWP2 P447E, O00308",-0.185 ± 0.062
14,"NEDD4-like E3 ubiquitin-protein ligase WWP2 P447F, O00308",-0.331 ± 0.088
15,"NEDD4-like E3 ubiquitin-protein ligase WWP2 P447H, O00308",-0.381 ± 0.075
16,"NEDD4-like E3 ubiquitin-protein ligase WWP2 P447I, O00308",-0.433 ± 0.051
17,"NEDD4-like E3 ubiquitin-protein ligase WWP2 P447K, O00308",-0.17 ± 0.052
18,"NEDD4-like E3 ubiquitin-protein ligase WWP2 P447L, O00308",-0.228 ± 0.048
19,"NEDD4-like E3 ubiquitin-protein ligase WWP2 P447M, O00308",-0.203 ± 0.045
20,"NEDD4-like E3 ubiquitin-protein ligase WWP2 P447N, O00308",-0.11 ± 0.075
21,"NEDD4-like E3 ubiquitin-protein ligase WWP2 P447Q, O00308",-0.289 ± 0.07
22,"NEDD4-like E3 ubiquitin-protein ligase WWP2 P447R, O00308",-0.316 ± 0.04
